From the supplement of paper PMC10567573 come the findings set out here.

B1: CDC25A (parent)
chain: KPIVPTDGKRVIVVFHCEFSSERG
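Note: lentivirally expressed fusions sorted by FACS into six bins by GFP to DsRed ratio, PSI derived from sequencing read proportions per bin multiplied by bin number.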

This data set covers variants of B1. Put plainly: protein stability index of a GFP-peptide fusion (GPS, HEK-293T) (PSI 1-6); higher = more stable. The conditions noted are these: c terminus: a fixed tail appended.
In the case of KPIVPTDGKRVIVVFQCEFSSERG, the protein stability index is 1.83. The result for KPVVPTDGKRVIVVFHCEFSSERG reads 2.43; that for KPAVPTDGKRVIVVFHCEFSSERG, 3.14; that for KPDVPTDGKRVIVVFHCEFSSERG, 1.76.

For KPHVPTDGKRVIVVFHCEFSSERG, the protein stability index came to 1.89.

Regarding KPTVPTDGKRVIVVFHCEFSSERG, the protein stability index came to 2.19. On to KPKVPTDGKRVIVVFHCEFSSERG, for which the protein stability index is 2.47. The value for KPIVPTDGKEVIVVFHCEFSSERG was 2.96; that for KPIVPTDGKSVIVVFHCEFSSERG was 2.33; that for KPIVPTDGKKVIVVFHCEFSSERG was 2.51. For the variant KPIVPTDGKFVIVVFHCEFSSERG, the protein stability index worked out at 2.43. For the variant KPIVPTDGKQVIVVFHCEFSSERG, the protein stability index was determined as 2.14.

KPIVPTDGKVVIVVFHCEFSSERG: the protein stability index was found to be 2.76. The result for KPIVPTDGKRVIVVFHVEFSSERG reads 2.73; that for KPIVPTDGKRVIVVFHTEFSSERG, 1.86. The value for KPIVPTDGKRVIVVFHNEFSSERG was 2.52; that for KPIVPTDGKRVIVVFHWEFSSERG was 2.91. For KPIVPTDGKRVIVVFHGEFSSERG, the protein stability index amounted to 1.98. The result for KPIVPTDGKRVIVVFHPEFSSERG reads 2.64. The value for KPIVPTDGKRVIVVFHDEFSSERG was 2.77.

Consider KPIVPTDGKRVIVVFHREFSSERG, for which the protein stability index worked out at 1.95. Regarding KPIVPTDGKRVIVVFHMEFSSERG, the protein stability index amounted to 1.99.

With KPIVPTDMKRVIVVFHCEFSSERG, the protein stability index was determined as 3.53. As to KPIVPTDEKRVIVVFHCEFSSERG, the protein stability index is 2.13. The value for KPIVPTDLKRVIVVFHCEFSSERG was 3.42; that for KPIVPTDKKRVIVVFHCEFSSERG was 1.82.

On to KPIVPTDVKRVIVVFHCEFSSERG, for which the protein stability index was 5.1.

Take KAIVPTDGKRVIVVFHCEFSSERG: the protein stability index was determined as 3.03. The value for KCIVPTDGKRVIVVFHCEFSSERG was 3.03. In the case of KIIVPTDGKRVIVVFHCEFSSERG, the protein stability index came out at 3.46. The value for KNIVPTDGKRVIVVFHCEFSSERG was 3.3; that for KQIVPTDGKRVIVVFHCEFSSERG was 2.24; that for KYIVPTDGKRVIVVFHCEFSSERG was 2.75. The result for KHIVPTDGKRVIVVFHCEFSSERG reads 2.44; that for KDIVPTDGKRVIVVFHCEFSSERG, 1.61. The value for KPIVPTDGKRVIVVFHCLFSSERG was 1.76; that for KPIVPTDGKRVIVVFHCHFSSERG was 3.13. Take KPIVPTDGKRVIVVFHCSFSSERG: the protein stability index amounted to 3.26.

For KPIVPTDGKRVIVVFHCPFSSERG, the protein stability index worked out at 2.31. The result for KPIVPTDGKRVIVVFHCQFSSERG reads 3.42; that for KPIVPTDGKRVIVVFHCDFSSERG, 1.79. On to KPIVPTDGKRVIVVFHCFFSSERG, for which the protein stability index came out at 3.14. The value for KPIVPTDGKRVIVVFHCAFSSERG was 2.51.

As to KPIVPTDGKRVIVVFHCIFSSERG, the protein stability index turned out to be 2.28. Consider KPIVPTDGKRVIVVFHCEFSSERR, for which the protein stability index was 3.92. On to KPIVPTDGKRVIVVFHCEFSSERL, for which the protein stability index was found to be 1.85. The value for KPIVPTDGKRVIVVFHCEFSSERS was 2.92. The result for KPIVPTDGKRVIVVFHCEFSSERW reads 3.51. The value for KPIVPTDGKRVIVVFHCEFSSERH was 3.36; that for KPIVPTDGKRVIVVFHCEFSSERQ was 3.67; that for KPIVPTDGKRVIHVFHCEFSSERG was 2.08. With KPIVPTDGKRVIGVFHCEFSSERG, the protein stability index was found to be 2.8.

With KPIVPTDGKRVIAVFHCEFSSERG, the protein stability index came out at 2.28. The result for KPIVPTDGKRVIQVFHCEFSSERG reads 3.24.

As for KPIVPTDGKRVIYVFHCEFSSERG, the protein stability index was found to be 2.31. The result for KPIVPTDGKRVIPVFHCEFSSERG reads 3.21; that for KPIVPTDGKRVIRVFHCEFSSERG, 2.91; that for KPIVPTDGKRVIKVFHCEFSSERG, 3.02. With KPIVPTDGKRVISVFHCEFSSERG, the protein stability index came to 3.36. Regarding KPIVPTDGKRVIMVFHCEFSSERG, the protein stability index came to 1.16. The result for KPIVPTDGKRVIWVFHCEFSSERG reads 1.79; that for KPIVPTDGMRVIVVFHCEFSSERG, 2.36. The result for KPIVPTDGCRVIVVFHCEFSSERG reads 2.67; that for KPIVPTDGDRVIVVFHCEFSSERG, 2.19. Consider KPIVPTDGNRVIVVFHCEFSSERG, for which the protein stability index was 2.31. The result for KPIVPTDGVRVIVVFHCEFSSERG reads 2.77; that for KPIVPTDGPRVIVVFHCEFSSERG, 1.94; that for KPIVPTDGKRVIVVFHCEFYSERG, 2.42. The value for KPIVPTDGKRVIVVFHCEFCSERG was 2.23; that for KPIVPTDGKRVIVVFHCEFLSERG was 2.5; that for KPIVPTDGKRVIVVFHCEFWSERG was 2.1. The value for KPIVPTDGKRVIVVFHCEFPSERG was 1.92. With KPIVPTDGKRVIVVFHCEFASERG, the protein stability index is 1.96. The result for KPIVPTDGKRVIVVFHCEFFSERG reads 3.29. For KPIVETDGKRVIVVFHCEFSSERG, the protein stability index was 2.33. The result for KPIVRTDGKRVIVVFHCEFSSERG reads 1.84. For KPIVKTDGKRVIVVFHCEFSSERG, the protein stability index is 2.13. Turning to KPIVYTDGKRVIVVFHCEFSSERG, the protein stability index turned out to be 2.66. The result for KPIVGTDGKRVIVVFHCEFSSERG reads 1.69; that for KPIVWTDGKRVIVVFHCEFSSERG, 3.01. The result for KPIVCTDGKRVIVVFHCEFSSERG reads 4.79; that for KPIVFTDGKRVIVVFHCEFSSERG, 2.19. Consider KPIVHTDGKRVIVVFHCEFSSERG, for which the protein stability index turned out to be 1.5. The result for KPIVPTDGKRRIVVFHCEFSSERG reads 1.68. The result for KPIVPTDGKRLIVVFHCEFSSERG reads 2.82; that for KPIVPTDGKRQIVVFHCEFSSERG, 2.25; that for KPIVPTDGKRAIVVFHCEFSSERG, 1.93. For KPIVPTDGKRMIVVFHCEFSSERG, the protein stability index came out at 2.06. Take KPIVPTDGKRTIVVFHCEFSSERG: the protein stability index stood at 1.76. KPIVPTDGKRPIVVFHCEFSSERG: the protein stability index is 2.31.

Turning to KPIVPTDGKRDIVVFHCEFSSERG, the protein stability index worked out at 2.65.

Consider KPIVPTDGKRFIVVFHCEFSSERG, for which the protein stability index turned out to be 2.11. KPIVPTDGKRYIVVFHCEFSSERG: the protein stability index stood at 2.59.

With KPIVPTDGKRKIVVFHCEFSSERG, the protein stability index amounted to 2.51.
